The chains are these.
B1: Tv-GAPDH (Trichoderma virens Gv29-8) (protein)
chain: MAPIKVGINGFGRIGRIVFRNAVEHPDIEVVAVNDPFIETTYAAYMLKYDSSHGLFKGDVEVDGKDLVVNGKKVRFYTERDPANIKWSETGADYIVESTGVFTTTEKAKAHLVGGAKKVIISAPSADAPMYVMGVNENDYNGSADVISNASCTTNCLAPLAKVINDNYGIVEGLMTTVHSYTATQKTVDGPSAKDWRGGRGAAQNIIPSSTGAAKAVGKVIPSLNGKLTGMSIRVPTANVSVVDLTVRLEKGATYAEITETIKKAADGPLKGVLAYTNDDVVSSDMLGNTNSSIFDIKAGISLNDNFVKLVSWYDNEWGYSRRVLDLLAHVAKVDASK
B2: HepG (Trichoderma virens Gv29-8; A201L) (protein)
chain: MVPKVGINGFGRIGRVVLRNALETGAVEVVALNDPFIEPHYAEYMFKYDSTHGRFKGDIKVDGKDLVIDGKRIKFYQERDPANIPWKDSGAEYIVESTGVFTTTEKASAHFKGGAKKVIISAPSADAPMYVMGVNEDTYAGANVISNASCTTNCLAPLAKTLNDKFTIVEGLMTAIHAYTASQKTVDGPSSKDWRGGRAALQNLIPSSTGAAKAVGKVIPELAGKVTGMSVRVPTVNVSLVDFTVRFAKDVTYDEVKAAIKEASEGPLKGILAYTEDDIVSTDILTDPHSSTFDAKAGIALNKNFVKVMSWYDNEYGYSRRVVDLIVFVSKKDAGQ
B3: HepG (Trichoderma virens Gv29-8) (protein)
chain: B2 chain with L201A

Changes are numbered by the printed parent chain. In names and notes the source's numbering stands.

We go through 3 proteins from publication PMC8162069.

Substrate in this data set: O=C[C@H](O)COP(=O)(O)O
The data set is described as follows: purified protein. The class given is biochemical, Trichoderma virens. The following applies: without HA.
In the case of B1, the Km amounted to 1100 ± 200 µM, the kcat was determined as 115 ± 21.7 s⁻¹ and the kcat/Km was 105000 M⁻¹ s⁻¹.
B2: the Michaelis-Menten constant (Km) was 260 ± 50 µM, the turnover number (kcat) turned out to be 21.7 ± 3.33 s⁻¹ and the specificity constant (kcat/Km) is 83300 M⁻¹ s⁻¹.
The corresponding values for B3 are 280 ± 50 µM, 41.7 ± 6.67 s⁻¹ and 148000 M⁻¹ s⁻¹.
